Test results published in article PMC12403130, “A β-cap on the FliPQR protein-export channel acts as the cap for initial flagellar rod assembly” (Proceedings of the National Academy of Sciences of the …, 2025).

Biological target: the molecule itself
Assay: cryo-EM structure; FliP, FliQ and FliR-His co-expressed in Salmonella SJW1368, complex solubilised with LMNG, purified and reconstituted in a peptidisc; single-particle analysis, C1 symmetry, 3.0 Å, closed form

B1: FliP (natural protein)
chain: QLPGLISQPLAGGGQSWSLSVQTLVFITSLTFLPAILLMMTSFTRIIIVFGLLRNALGTPSAPPNQVLLGLALFLTFFIMSPVIDKIYVDAYQPFSEQKISMQEALDKGAQPLRAFMLRQTREADLALFARLANSGPLQGPEAVPMRILLPAYVTSELKTAFQIGFTIFIPFLIIDLVIASVLMALGMMMVPPATIALPFKLMLFVLVDGWQLLMGSLAQSFYS
notes: FliP, Salmonella enterica serovar Typhimurium; signal peptide (residues 1 to 21) cleaved between Ala-21 and Gln-22 during membrane insertion; the mature protein begins at Gln-22; Five copies of FliP stand in the FliP5-FliQ4-FliR1 complex; also called mature FliP; FliP^1; source: membranes solubilised with 1% LMNG; reconstituted in a peptidisc
With B1 as the protein, how does the “stoichiometry N” value read?
Its value is 5.
